In patent publication US20160244802:

Tests used:
[1] = molecular target: T1, histone H3 (1-18) peptide, H3K4me2 (Upstate 12-460), P68431
T1 chain: ARTKQTARKSTGGKAPRK

[2] = molecular target: T2, histone H3 (1-18) peptide, H3K4me1 (Upstate 12-563), P68431
T2 chain: ARTKQTARKSTGGKAPRK

[3] = molecular target: T3, histone H3 (1-18) peptide, H3K4me3 (Upstate 12-564), P68431
T3 chain: ARTKQTARKSTGGKAPRK

[4] = molecular target: T4, dimethyl-K9 histone H3 peptide (acetyl-ARTKQTARmeKSTGGKAPRK-biotin)
T4 chain: ARTKQTARKSTGGKAPRK

[5] = molecular target: T5, trimethyl-K9 histone H3 peptide (acetyl-ARTKQTARmeKSTGGKAPRK-biotin)
T5 chain: ARTKQTARKSTGGKAPRK

[6] = molecular target: T6, histone H3 (1-18) peptide, di-methyl on lysine 9, P68431
T6 chain: ARTKQTARKSTGGKAPRK

[7] = molecular target: T7, histone H3 (1-18) peptide, tri-methyl on lysine 9, P68431
T7 chain: ARTKQTARKSTGGKAPRK

[8] = molecular target: T8, dimethyl-K36 histone H3 peptide (STGGV2mKKPHRY-C)
T8 chain: STGGVKKPHRYC

[9] = molecular target: trimethyl-K36 histone H3 peptide

B1: recombinant Flag-RBP2 (Retinoblastoma Binding Protein 2, JARID1A) (protein)
chain: MAGVGPGGYAAEFVPPPECPVFEPSWEEFTDPLSFIGRIRPLAEKTGICKIRPPKDWQPPFACEVKSFRFTPRVQRLNELEAMTRVRLDFLDQLAKFWELQGSTLKIPVVERKILDLYALSKIVASKGGFEMVTKEKKWSKVGSRLGYLPGKGTGSLLKSHYERILYPYELFQSGVSLMGVQMPNLDLKEKVEPEVLSTDTQTSPEPGTRMNILPKRTRRVKTQSESGDVSRNTELKKLQIFGAGPKVVGLAMGTKDKEDEVTRRRKVTNRSDAFNMQMRQRKGTLSVNFVDLYVCMFCGRGNNEDKLLLCDGCDDSYHTFCLIPPLPDVPKGDWRCPKCVAEECSKPREAFGFEQAVREYTLQSFGEMADNFKSDYFNMPVHMVPTELVEKEFWRLVSSIEEDVIVEYGADISSKDFGSGFPVKDGRRKILPEEEEYALSGWNLNNMPVLEQSVLAHINVDISGMKVPWLYVGMCFSSFCWHIEDHWSYSINYLHWGEPKTWYGVPSHAAEQLEEVMRELAPELFESQPDLLHQLVTIMNPNVLMEHGVPVYRTNQCAGEFVVTFPRAYHSGFNQGYNFAEAVNFCTADWLPIGRQCVNHYRRLRRHCVFSHEELIFKMAADPECLDVGLAAMVCKELTLMTEEETRLRESVVQMGVLMSEEEVFELVPDDERQCSACRTTCFLSALTCSCNPERLVCLYHPTDLCPCPMQKKCLRYRYPLEDLPSLLYGVKVRAQSYDTWVSRVTEALSANFNHKKDLIELRVMLEDAEDRKYPENDLFRKLRDAVKEAETCASVAQLLLSKKQKHRQSPDSGRTRTKLTVEELKAFVQQLFSLPCVISQARQVKNLLDDVEEFHERAQEAMMDETPDSSKLQMLIDMGSSLYVELPELPRLKQELQQARWLDEVRLTLSDPQQVTLDVMKKLIDSGVGLAPHHAVEKAMAELQELLTVSERWEEKAKVCLQARPRHSVASLESIVNEAKNIPAFLPNVLSLKEALQKAREWTAKVEAIQSGSNYAYLEQLESLSAKGRPIPVRLEALPQVESQVAAARAWRERTGRTFLKKNSSHTLLQVLSPRTDIGVYGSGKNRRKKVKELIEKEKEKDLDLEPLSDLEEGLEETRDTAMVVAVFKEREQKEIEAMHSLRAANLAKMTMVDRIEEVKFCICRKTASGFMLQCELCKDWFHNSCVPLPKSSSQKKGSSWQAKEVKFLCPLCMRSRRPRLETILSLLVSLQKLPVRLPEGEALQCLTERAMSWQDRARQALATDELSSALAKLSVLSQRMVEQAAREKTEKIISAELQKAAANPDLQGHLPSFQQSAFNRVVSSVSSSPRQTMDYDDEETDSDEDIRETYGYDMKDTASVKSSSSLEPNLFCDEEIPIKSEEVVTHMWTAPSFCAEHAYSSASKSCSQGSSTPRKQPRKSPLVPRSLEPPVLELSPGAKAQLEELMMVGDLLEVSLDETQHIWRILQATHPPSEDRFLHIMEDDSMEEKPLKVKGKDSSEKKRKRKLEKVEQLFGEGKQKSKELKKMDKPRKKKLKLGADKSKELNKLAKKLAKEEERKKKKEKAAAAKVELVKESTEKKREKKVLDIPSKYDWSGAEESDDENAVCAAQNCQRPCKDKVDWVQCDGGCDEWFHQVCVGVSPEMAENEDYICINCAKKQGPVSPGPAPPPSFIMSYKLPMEDLKETS
- demethylation of peptide substrate, mass spectrometry [1]: 80-90% demethylation of the modified substrate
- demethylation of peptide substrate, mass spectrometry [2]: failed to catalyze removal of the mel modification state
- demethylation of peptide substrate, mass spectrometry [3]: 80-90% demethylation of the modified substrate

B2: recombinant Flag-JHDM2A (JmjC domain-containing histone demethylase 2A) (protein)
chain: MVLTLGESWPVLVGRRFLSLSAADGSDGSHDSWDVERVAEWPWLSGTIRAVSHTDVTKKDLKVCVEFDGESWRKRRWIEVYSLLRRAFLVEHNLVLAERKSPEISERIVQWPAITYKPLLDKAGLGSITSVRFLGDQQRVFLSKDLLKPIQDVNSLRLSLTDNQIVSKEFQALIVKHLDESHLLKGDKNLVGSEVKIYSLDPSTQWFSATVINGNPASKTLQVNCEEIPALKIVDPSLIHVEVVHDNLVTCGNSARIGAVKRKSSENNGTLVSKQAKSCSEASPSMCPVQSVPTTVFKEILLGCTAATPPSKDPRQQSTPQAANSPPNLGAKIPQGCHKQSLPEEISSCLNTKSEALRTKPDVCKAGLLSKSSQIGTGDLKILTEPKGSCTQPKTNTDQENRLESVPQALTGLPKECLPTKASSKAELEIANPPELQKHLEHAPSPSDVSNAPEVKAGVNSDSPNNCSGKKVEPSALACRSQNLKESSVKVDNESCCSRSNNKIQNAPSRKSVLTDPAKLKKLQQSGEAFVQDDSCVNIVAQLPKCRECRLDSLRKDKEQQKDSPVFCRFFHFRRLQFNKHGVLRVEGFLTPNKYDNEAIGLWLPLTKNVVGIDLDTAKYILANIGDHFCQMVISEKEAMSTIEPHRQVAWKRAVKGVREMCDVCDTTIFNLHWVCPRCGFGVCVDCYRMKRKNCQQGAAYKTFSWLKCVKSQIHEPENLMPTQIIPGKALYDVGDIVHSVRAKWGIKANCPCSNRQFKLFSKPASKEDLKQTSLAGEKPTLGAVLQQNPSVLEPAAVGGEAASKPAGSMKPACPASTSPLNWLADLTSGNVNKENKEKQPTMPILKNEIKCLPPLPPLSKSSTVLHTFNSTILTPVSNNNSGFLRNLLNSSTGKTENGLKNTPKILDDIFASLVQNKTTSDLSKRPQGLTIKPSILGFDTPHYWLCDNRLLCLQDPNNKSNWNVFRECWKQGQPVMVSGVHHKLNSELWKPESFRKEFGEQEVDLVNCRTNEIITGATVGDFWDGFEDVPNRLKNEKEPMVLKLKDWPPGEDFRDMMPSRFDDLMANIPLPEYTRRDGKLNLASRLPNYFVRPDLGPKMYNAYGLITPEDRKYGTTNLHLDVSDAANVMVYVGIPKGQCEQEEEVLKTIQDGDSDELTIKRFIEGKEKPGALWHIYAAKDTEKIREFLKKVSEEQGQENPADHDPIHDQSWYLDRSLRKRLHQEYGVQGWAIVQFLGDVVFIPAGAPHQVHNLYSCIKVAEDFVSPEHVKHCFWLTQEFRYLSQTHTNHEDKLQVKNVIYHAVKDAVAMLKASESSFGKP
- demethylation of peptide substrate, mass spectrometry [4]: demethylation of a dimethyl-K9 peptide depends on the presence of JHDM2A and generated products with masses that correlate with both mono-methyl and unmethylated forms of the peptide
- demethylation of peptide substrate, mass spectrometry [5]: no demethylation was detected when a trimethyl-K9 peptide, that has the same sequence, was subjected to parallel analysis

B3: recombinant Flag-JHDM3A (JMJD2A) (protein)
chain: MASESETLNPSARIMTFYPTMEEFRNFSRYIAYIESQGAHRAGLAKVVPPKEWKPRASYDDIDDLVIPAPIQQLVTGQSGLFTQYNIQKKAMTVREFRKIANSDKYCTPRYSEFEELERKYWKNLTFNPPIYGADVNGTLYEKHVDEWNIGRLRTILDLVEKESGITIEGVNTPYLYFGMWKTSFAWHTEDMDLYSINYLHFGEPKSWYSVPPEHGKRLERLAKGFFPGSAQSCEAFLRHKMTLISPLMLKKYGIPFDKVTQEAGEFMITFPYGYHAGFNHGFNCAESTNFATRRWIEYGKQAVLCSCRKDMVKISMDVFVRKFQPERYKLWKAGKDNTVIDHTLPTPEAAEFLKESELPPRAGNEEECPEEDMEGVEDGEEGDLKTSLAKHRIGTKRHRVCLEIPQEVSQSELFPKEDLSSEQYEMTECPAALAPVRPTHSSVRQVEDGLTFPDYSDSTEVKFEELKNVKLEEEDEEEEQEAAALDLSVNPASVGGRLVFSGSKKKSSSSLGSGSSRDSISSDSETSEPLSCRAQGQTGVLTVHSYAKGDGRVTVGEPCTRKKGSAARSFSERELAEVADEYMFSLEENKKSKGRRQPLSKLPRHHPLVLQECVSDDETSEQLTPEEEAEETEAWAKPLSQLWQNRPPNFEAEKEFNETMAQQAPHCAVCMIFQTYHQVEFGGFNQNCGNASDLAPQKQRTKPLIPEMCFTSTGCSTDINLSTPYLEEDGTSILVSCKKCSVRVHASCYGVPPAKASEDWMCSRCSANALEEDCCLCSLRGGALQRANDDRWVHVSCAVAILEARFVNIAERSPVDVSKIPLPRFKLKCIFCKKRRKRTAGCCVQCSHGRCPTAFHVSCAQAAGVMMQPDDWPFVVFITCFRHKIPNLERAKGALQSITAGQKVISKHKNGRFYQCEVVRLTTETFYEVNFDDGSFSDNLYPEDIVSQDCLQFGPPAEGEVVQVRWTDGQVYGAKFVASHPIQMYQVEFEDGSQLVVKRDDVYTLDEELPKRVKSRLSVASDMRFNEIFTEKEVKQEKKRQRVINSRYREDYIEPALYRAIME
- demethylation of peptide substrate, mass spectrometry [6]: no demethylation was observed on a di-methyl H3K9 peptide
- demethylation of peptide substrate, mass spectrometry [7]: the trimethyl-K9 peptide was converted to a dimethyl-K9 peptide

B4: recombinant Flag-JHDM1A (FBXL11) (protein)
chain: MEPEEERIRYSQRLRGTMRRRYEDDGISDDEIEGKRTFDLEEKLHTNKYNANFVTFMEGKDFNVEYIQRGGLRDPLIFKNSDGLGIKMPDPDFTVNDVKMCVGSRRMVDVMDVNTQKGIEMTMAQWTRYYETPEEEREKLYNVISLEFSHTRLENMVQRPSTVDFIDWVDNMWPRHLKESQTESTNAILEMQYPKVQKYCLMSVRGCYTDFHVDFGGTSVWYHIHQGGKVFWLIPPTAHNLELYENWLLSGKQGDIFLGDRVSDCQRIELKQGYTFVIPSGWIHAVYTPTDTLVFGGNFLHSFNIPMQLKIYNIEDRTRVPNKFRYPFYYEMCWYVLERYVYCITNRSHLTKEFQKESLSMDLELNGLESGNGDEEAVDREPRRLSSRRSVLTSPVANGVNLDYDGLGKTCRSLPSLKKTLAGDSSSDCSRGSHNGQVWDPQCAPRKDRQVHLTHFELEGLRCLVDKLESLPLHKKCVPTGIEDEDALIADVKILLEELANSDPKLALTGVPIVQWPKRDKLKFPTRPKVRVPTIPITKPHTMKPAPRLTPVRPAAASPIVSGARRRRVRCRKCKACVQGECGVCHYCRDMKKFGGPGRMKQSCVLRQCLAPRLPHSVTCSLCGEVDQNEETQDFEKKLMECCICNEIVHPGCLQMDGEGLLNEELPNCWECPKCYQEDSSEKAQKRKMEESDEEAVQAKVLRPLRSCDEPLTPPPHSPTSMLQLIHDPVSPRGMVTRSSPGAGPSDHHSASRDERFKRRQLLRLQATERTMVREKENNPSGKKELSEVEKAKIRGSYLTVTLQRPTKELHGTSIVPKLQAITASSANLRHSPRVLVQHCPARTPQRGDEEGLGGEEEEEEEEEEEDDSAEEGGAARLNGRGSWAQDGDESWMQREVWMSVFRYLSRRELCECMRVCKTWYKWCCDKRLWTKIDLSRCKAIVPQALSGIIKRQPVSLDLSWTNISKKQLTWLVNRLPGLKDLLLAGCSWSAVSALSTSSCPLLRTLDLRWAVGIKDPQIRDLLTPPADKPGQDNRSKLRNMTDFRLAGLDITDATLRLIIRHMPLLSRLDLSHCSHLTDQSSNLLTAVGSSTRYSLTELNMAGCNKLTDQTLIYLRRIANVTLIDLRGCKQITRKACEHFISDLSINSLYCLSDEKLIQKIS
- demethylation of peptide substrate, mass spectrometry [8]: revealed the generation of mono- and unmethylated forms of the peptide in a JHDM1A-dependent manner
- demethylation of peptide substrate, mass spectrometry [9]: we did not detect any demethylation when a trimethyl-K36 peptide was subjected to a parallel reaction (data not shown)
